The record followed here is PMC11082178.

The test addresses CRF01_AE Env consensus with redesigned HV loops, version 1 (shortest V1HV, without the 'IGNITD' motif), Env on pseudovirus (HIV-1 CRF01_AE (consensus)).

On to 10-1074 (antibody), for which the neutralisation of Env pseudovirus in TZM-bl cells, IC50 turned out to be 0.544 µg/mL.
